T1: recombinant canine Nerve Growth Factor (Canis lupus familiaris NGF) (canine (Canis lupus familiaris), UniProt Q29074 110-229 (pig entry), limits assumed)
T1 construct: also called canine NGF; Dog NGF
T1 chain: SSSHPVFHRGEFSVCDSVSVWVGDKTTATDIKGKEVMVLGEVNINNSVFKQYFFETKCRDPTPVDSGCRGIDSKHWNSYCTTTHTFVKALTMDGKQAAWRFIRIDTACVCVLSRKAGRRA

B1: SSM-17 (LC SSMwtLCR53S, HC SSMwtHCD54T) (antibody, V domains shown)
VH: EVQLVESGGDLARPGGSLKLSCVVSGFSLIGYDINWVRQAPGKGLQWVTMIWGTGTTDYNSALKSRFTVSRDNAMNTVYLQMNSLRVEDTAVYYCARGGYYYGTSYYFDYWGQGTLVTVSS
VL: DIVMTQTPLSLSVSPGETASISCRASQDISNHLNWFRQKPGQSPQRLIYYISSFHSGVPDRFSGSGSGTDFTLRISRVEADDTGVYYCQQSKTLPYTFGAGTKLEIK
B2: SSM-3 (LC E3M, HC SSMwtHCG31E) (antibody, V domains shown)
VH: EVQLVESGGDLARPGGSLKLSCVVSGFSLIEYDINWVRQAPGKGLQWVTMIWGDGTTDYNSALKSRFTVSRDNAMNTVYLQMNSLRVEDTAVYYCARGGYYYGTSYYFDYWGQGTLVTVSS
VL: DIVMTQTPLSLSVSPGETASISCRASQDISNHLNWFRQKPGQSPQRLIYYISRFHSGVPDRFSGSGSGTDFTLRISRVEADDTGVYYCQQSKTLPYTFGAGTKLEIK
B3: SSM-19 (LC SSMwtLCR53S, HC SSMwtHCD54T, L63I) (antibody, V domains shown)
VH: EVQLVESGGDLARPGGSLKLSCVVSGFSLIGYDINWVRQAPGKGLQWVTMIWGTGTTDYNSAIKSRFTVSRDNAMNTVYLQMNSLRVEDTAVYYCARGGYYYGTSYYFDYWGQGTLVTVSS
VL: DIVMTQTPLSLSVSPGETASISCRASQDISNHLNWFRQKPGQSPQRLIYYISSFHSGVPDRFSGSGSGTDFTLRISRVEADDTGVYYCQQSKTLPYTFGAGTKLEIK
B4: SSM-2 (LC E3M, HC SSMwtHCG31Q) (antibody, V domains shown)
VH: EVQLVESGGDLARPGGSLKLSCVVSGFSLIQYDINWVRQAPGKGLQWVTMIWGDGTTDYNSALKSRFTVSRDNAMNTVYLQMNSLRVEDTAVYYCARGGYYYGTSYYFDYWGQGTLVTVSS
VL: DIVMTQTPLSLSVSPGETASISCRASQDISNHLNWFRQKPGQSPQRLIYYISRFHSGVPDRFSGSGSGTDFTLRISRVEADDTGVYYCQQSKTLPYTFGAGTKLEIK
notes: IgG expressed in HEK293; constant regions are not restated
B5: SSM-34 (LC SSM135LCR53S, HC135 (G103A)) (antibody, V domains shown)
VH: EVQLVESGGDLARPGGSLKLSCVVSGFSLIGYDINWVRQAPGKGLQWVTMIWGDGTTDYNSALKSRFTVSRDNAMNTVYLQMNSLRVEDTAVYYCARGGYYYATSYYFDYWGQGTLVTVSS
VL: DIVMTQTPLSLSVSPGETASISCRASQDISNNLNWFRQKPGQSPQRLIYYISSFHSGVPDRFSGSGSGTDFTLRISRVEADDTGVYYCQQSKTLPYTFGAGTKLEIK
notes: The light chain is the LTM135 template (E3M H32N) plus R53S
B6: SSM-36 (LC SSM135LCR53S, HC SSM135HCG31E) (antibody, V domains shown)
VH: EVQLVESGGDLARPGGSLKLSCVVSGFSLIEYDINWVRQAPGKGLQWVTMIWGDGTTDYNSALKSRFTVSRDNAMNTVYLQMNSLRVEDTAVYYCARGGYYYATSYYFDYWGQGTLVTVSS
VL: DIVMTQTPLSLSVSPGETASISCRASQDISNNLNWFRQKPGQSPQRLIYYISSFHSGVPDRFSGSGSGTDFTLRISRVEADDTGVYYCQQSKTLPYTFGAGTKLEIK
notes: Both chains are built on the LTM135 template (HC G103A, LC H32N)
B7: SSM-14 (LC SSMwtLCR53S, HC SSMwtHCG31E) (antibody, V domains shown)
VH: EVQLVESGGDLARPGGSLKLSCVVSGFSLIEYDINWVRQAPGKGLQWVTMIWGDGTTDYNSALKSRFTVSRDNAMNTVYLQMNSLRVEDTAVYYCARGGYYYGTSYYFDYWGQGTLVTVSS
VL: DIVMTQTPLSLSVSPGETASISCRASQDISNHLNWFRQKPGQSPQRLIYYISSFHSGVPDRFSGSGSGTDFTLRISRVEADDTGVYYCQQSKTLPYTFGAGTKLEIK
B8: SSM-22 (LC SSMwtLCR53S, HC SSMwtHCD54T, G31E) (antibody, V domains shown)
VH: EVQLVESGGDLARPGGSLKLSCVVSGFSLIEYDINWVRQAPGKGLQWVTMIWGTGTTDYNSALKSRFTVSRDNAMNTVYLQMNSLRVEDTAVYYCARGGYYYGTSYYFDYWGQGTLVTVSS
VL: DIVMTQTPLSLSVSPGETASISCRASQDISNHLNWFRQKPGQSPQRLIYYISSFHSGVPDRFSGSGSGTDFTLRISRVEADDTGVYYCQQSKTLPYTFGAGTKLEIK
B9: SSM-8 (LC E3M, HC SSMwtHCD54T, L63I) (antibody, V domains shown)
VH: EVQLVESGGDLARPGGSLKLSCVVSGFSLIGYDINWVRQAPGKGLQWVTMIWGTGTTDYNSAIKSRFTVSRDNAMNTVYLQMNSLRVEDTAVYYCARGGYYYGTSYYFDYWGQGTLVTVSS
VL: DIVMTQTPLSLSVSPGETASISCRASQDISNHLNWFRQKPGQSPQRLIYYISRFHSGVPDRFSGSGSGTDFTLRISRVEADDTGVYYCQQSKTLPYTFGAGTKLEIK
B10: SSM-13 (LC SSMwtLCR53S, HC SSMwtHCG31Q) (antibody, V domains shown)
VH: EVQLVESGGDLARPGGSLKLSCVVSGFSLIQYDINWVRQAPGKGLQWVTMIWGDGTTDYNSALKSRFTVSRDNAMNTVYLQMNSLRVEDTAVYYCARGGYYYGTSYYFDYWGQGTLVTVSS
VL: DIVMTQTPLSLSVSPGETASISCRASQDISNHLNWFRQKPGQSPQRLIYYISSFHSGVPDRFSGSGSGTDFTLRISRVEADDTGVYYCQQSKTLPYTFGAGTKLEIK
B11: LTM construct 110 (HC Y101W, G103A; LC K92D) (antibody, V domains shown)
VH: EVQLVESGGDLARPGGSLKLSCVVSGFSLIGYDINWVRQAPGKGLQWVTMIWGDGTTDYNSALKSRFTVSRDNAMNTVYLQMNSLRVEDTAVYYCARGGYWYATSYYFDYWGQGTLVTVSS
VL: DIVMTQTPLSLSVSPGETASISCRASQDISNHLNWFRQKPGQSPQRLIYYISRFHSGVPDRFSGSGSGTDFTLRISRVEADDTGVYYCQQSDTLPYTFGAGTKLEIK
notes: Point mutant of canE3M65 as full IgG
B12: LTM construct 111 (HC Y101W, G103A; LC *D28S, NH31HN, S91Y) (antibody, V domains shown)
VH: EVQLVESGGDLARPGGSLKLSCVVSGFSLIGYDINWVRQAPGKGLQWVTMIWGDGTTDYNSALKSRFTVSRDNAMNTVYLQMNSLRVEDTAVYYCARGGYWYATSYYFDYWGQGTLVTVSS
VL: DIVMTQTPLSLSVSPGETASISCRASQSISHNLNWFRQKPGQSPQRLIYYISRFHSGVPDRFSGSGSGTDFTLRISRVEADDTGVYYCQQYKTLPYTFGAGTKLEIK
notes: The '*' is not explained
B13: LTM construct 112 (HC Y101W, G103A; LC D28S, NH31HN, K92D) (antibody, V domains shown)
VH: EVQLVESGGDLARPGGSLKLSCVVSGFSLIGYDINWVRQAPGKGLQWVTMIWGDGTTDYNSALKSRFTVSRDNAMNTVYLQMNSLRVEDTAVYYCARGGYWYATSYYFDYWGQGTLVTVSS
VL: DIVMTQTPLSLSVSPGETASISCRASQSISHNLNWFRQKPGQSPQRLIYYISRFHSGVPDRFSGSGSGTDFTLRISRVEADDTGVYYCQQSDTLPYTFGAGTKLEIK
notes: as for B11
B14: LTM construct 32 (HC Y100W, LC D28S) (antibody, V domains shown)
VH: EVQLVESGGDLARPGGSLKLSCVVSGFSLIGYDINWVRQAPGKGLQWVTMIWGDGTTDYNSALKSRFTVSRDNAMNTVYLQMNSLRVEDTAVYYCARGGWYYGTSYYFDYWGQGTLVTVSS
VL: DIVMTQTPLSLSVSPGETASISCRASQSISNHLNWFRQKPGQSPQRLIYYISRFHSGVPDRFSGSGSGTDFTLRISRVEADDTGVYYCQQSKTLPYTFGAGTKLEIK
notes: Point mutant of canE3M65, converted into full IgG and expressed in HEK293; The canine constant regions are not restated
B15: LTM construct 36 (HC Y100W, LC K92D) (antibody, V domains shown)
VH: EVQLVESGGDLARPGGSLKLSCVVSGFSLIGYDINWVRQAPGKGLQWVTMIWGDGTTDYNSALKSRFTVSRDNAMNTVYLQMNSLRVEDTAVYYCARGGWYYGTSYYFDYWGQGTLVTVSS
VL: DIVMTQTPLSLSVSPGETASISCRASQDISNHLNWFRQKPGQSPQRLIYYISRFHSGVPDRFSGSGSGTDFTLRISRVEADDTGVYYCQQSDTLPYTFGAGTKLEIK
notes: Point mutant of canE3M65 as full IgG; Constant regions are not restated
B16: LTM construct 39 (HC Y100W, LC D28S, S91Y) (antibody, V domains shown)
VH: EVQLVESGGDLARPGGSLKLSCVVSGFSLIGYDINWVRQAPGKGLQWVTMIWGDGTTDYNSALKSRFTVSRDNAMNTVYLQMNSLRVEDTAVYYCARGGWYYGTSYYFDYWGQGTLVTVSS
VL: DIVMTQTPLSLSVSPGETASISCRASQSISNHLNWFRQKPGQSPQRLIYYISRFHSGVPDRFSGSGSGTDFTLRISRVEADDTGVYYCQQYKTLPYTFGAGTKLEIK
notes: as for B15
B17: LTM construct 37 (HC Y100W, LC *D28S, NH31HN, S91Y) (antibody, V domains shown)
VH: EVQLVESGGDLARPGGSLKLSCVVSGFSLIGYDINWVRQAPGKGLQWVTMIWGDGTTDYNSALKSRFTVSRDNAMNTVYLQMNSLRVEDTAVYYCARGGWYYGTSYYFDYWGQGTLVTVSS
VL: DIVMTQTPLSLSVSPGETASISCRASQSISHNLNWFRQKPGQSPQRLIYYISRFHSGVPDRFSGSGSGTDFTLRISRVEADDTGVYYCQQYKTLPYTFGAGTKLEIK
notes: as for B11
B18: LTM construct 33 (HC Y100W, LC *D28S, NH31HN) (antibody, V domains shown)
VH: EVQLVESGGDLARPGGSLKLSCVVSGFSLIGYDINWVRQAPGKGLQWVTMIWGDGTTDYNSALKSRFTVSRDNAMNTVYLQMNSLRVEDTAVYYCARGGWYYGTSYYFDYWGQGTLVTVSS
VL: DIVMTQTPLSLSVSPGETASISCRASQSISHNLNWFRQKPGQSPQRLIYYISRFHSGVPDRFSGSGSGTDFTLRISRVEADDTGVYYCQQSKTLPYTFGAGTKLEIK
notes: as for B11
B19: LTM construct 38 (HC Y100W, LC D28S, NH31HN, K92D) (antibody, V domains shown)
VH: EVQLVESGGDLARPGGSLKLSCVVSGFSLIGYDINWVRQAPGKGLQWVTMIWGDGTTDYNSALKSRFTVSRDNAMNTVYLQMNSLRVEDTAVYYCARGGWYYGTSYYFDYWGQGTLVTVSS
VL: DIVMTQTPLSLSVSPGETASISCRASQSISHNLNWFRQKPGQSPQRLIYYISRFHSGVPDRFSGSGSGTDFTLRISRVEADDTGVYYCQQSDTLPYTFGAGTKLEIK
notes: as for B15

Target: T1, recombinant canine Nerve Growth Factor …
Assay: SPR, 1:1 binding fit, canine NGF

Binder | Kd | koff | kon
B1 | 69.1 nM | 0.0014 s⁻¹ | 20300 M⁻¹ s⁻¹
B2 | 41.4 nM | 0.000167 s⁻¹ | 4040 M⁻¹ s⁻¹
B3 | 37.4 nM | 0.00164 s⁻¹ | 43800 M⁻¹ s⁻¹
B4 | 14.2 nM | 0.000114 s⁻¹ | 8080 M⁻¹ s⁻¹
B5 | 3.08 nM | 0.000192 s⁻¹ | 62400 M⁻¹ s⁻¹
B6 | 40.2 nM | 0.00033 s⁻¹ | 8200 M⁻¹ s⁻¹
B7 | 23.6 nM | 0.00812 s⁻¹ | 344000 M⁻¹ s⁻¹
B8 | 249 nM | 0.000296 s⁻¹ | 1190 M⁻¹ s⁻¹
B9 | 41.8 nM | 0.000173 s⁻¹ | 4130 M⁻¹ s⁻¹
B10 | 311 nM | 0.00241 s⁻¹ | 7750 M⁻¹ s⁻¹

Target: T1, recombinant canine Nerve Growth Factor …
Assay: SPR, Biacore T100, dog NGF; run 11/29; comment 'Agg?'

Binder | Kd
B11 | 0.942 nM
B12 | 0.0288 nM
B13 | 0.0152 nM

Target: T1, recombinant canine Nerve Growth Factor …
Assay: SPR, Biacore T100, dog NGF; run 11/22

Binder | Kd | binding result
B14 | 2.25 nM | –
B15 | 5.5 nM | –
B16 | – | no binding
B17 | 1.91 nM | –
B18 | – | no binding
B19 | 2.15 nM | –

Target: T1, recombinant canine Nerve Growth Factor …
Assay: SPR, Biacore T100, dog NGF; run 11/24; comment 'Agg?'

Binder | Kd
B11 | 0.00326 nM
B12 | 0.146 nM
B13 | 0.00165 nM
